The assay has as its target MGF505-4R fused to NanoLuciferase fragment N1 (pDEST-N2H-N1) (African swine fever virus, Georgia 2007/1 strain). The assay can be described thus: split reporter (BiFC, NanoBiT).

“swine TRAF3 fused to NanoLuciferase fragment N2 (pDEST-N2H-N2) (natural protein)” had a luminescence score (fold increase over N1-MGF505-4R with empty N2 vector) of 8.5 fold.

Values taken from PMC10961335.
